# B1: Eglin C (protein, UniProt P01051 1-70, looked up)
# Eglin C: TEFGSELKSFPEVVGKTVDQAREYFTLHYPQYDVYFLPEGSPVTLDLRYNRVRVFYNPGTNVVNHVPHVG
# Molecular target: trypsin
# Experiment: Inhibition constant Ki, steady-state release of p-nitroaniline, trypsin
# Format: biochemical
# Details: only inhibitor concentration varied
# Protocol: The determination of the inhibition constants Ki is carried out according to N. Braun et al. [Biol. Chem. Hoppe-Seyler 368, 299-308 (1987)] by measuring the steady-state reaction rate of the release of p-nitroaniline from proteinase-inhibitor substrate mixtures. Only the inhibitor concentration is varied. Since the curve OD405 vs. time was linear, the release of p-nitroaniline is entered at 10 to 20 minutes. Ki can be determined from the various slopes. The proteinases used are human leukocyte elastase (HLE), chymotrypsin and trypsin.
molecule,measurement,value
B1,"Inhibition constants, trypsin Ki (M)",no inhibition

# From patent US5180667A, “Genes encoding eglin C mutants” (Ciba-Geigy Corporation, priority 1988, dated 1993)
